Reference: patent US6444793

Target: patched (receptor for Shh), on patched-transfected EBNA-293 cells
Assay: FACS competition with Shh-Ig on patched-transfected EBNA-293 cells

Chain of patched (receptor for Shh), on patched-transfected EBNA-293 cells (A3KBI9 whole entry): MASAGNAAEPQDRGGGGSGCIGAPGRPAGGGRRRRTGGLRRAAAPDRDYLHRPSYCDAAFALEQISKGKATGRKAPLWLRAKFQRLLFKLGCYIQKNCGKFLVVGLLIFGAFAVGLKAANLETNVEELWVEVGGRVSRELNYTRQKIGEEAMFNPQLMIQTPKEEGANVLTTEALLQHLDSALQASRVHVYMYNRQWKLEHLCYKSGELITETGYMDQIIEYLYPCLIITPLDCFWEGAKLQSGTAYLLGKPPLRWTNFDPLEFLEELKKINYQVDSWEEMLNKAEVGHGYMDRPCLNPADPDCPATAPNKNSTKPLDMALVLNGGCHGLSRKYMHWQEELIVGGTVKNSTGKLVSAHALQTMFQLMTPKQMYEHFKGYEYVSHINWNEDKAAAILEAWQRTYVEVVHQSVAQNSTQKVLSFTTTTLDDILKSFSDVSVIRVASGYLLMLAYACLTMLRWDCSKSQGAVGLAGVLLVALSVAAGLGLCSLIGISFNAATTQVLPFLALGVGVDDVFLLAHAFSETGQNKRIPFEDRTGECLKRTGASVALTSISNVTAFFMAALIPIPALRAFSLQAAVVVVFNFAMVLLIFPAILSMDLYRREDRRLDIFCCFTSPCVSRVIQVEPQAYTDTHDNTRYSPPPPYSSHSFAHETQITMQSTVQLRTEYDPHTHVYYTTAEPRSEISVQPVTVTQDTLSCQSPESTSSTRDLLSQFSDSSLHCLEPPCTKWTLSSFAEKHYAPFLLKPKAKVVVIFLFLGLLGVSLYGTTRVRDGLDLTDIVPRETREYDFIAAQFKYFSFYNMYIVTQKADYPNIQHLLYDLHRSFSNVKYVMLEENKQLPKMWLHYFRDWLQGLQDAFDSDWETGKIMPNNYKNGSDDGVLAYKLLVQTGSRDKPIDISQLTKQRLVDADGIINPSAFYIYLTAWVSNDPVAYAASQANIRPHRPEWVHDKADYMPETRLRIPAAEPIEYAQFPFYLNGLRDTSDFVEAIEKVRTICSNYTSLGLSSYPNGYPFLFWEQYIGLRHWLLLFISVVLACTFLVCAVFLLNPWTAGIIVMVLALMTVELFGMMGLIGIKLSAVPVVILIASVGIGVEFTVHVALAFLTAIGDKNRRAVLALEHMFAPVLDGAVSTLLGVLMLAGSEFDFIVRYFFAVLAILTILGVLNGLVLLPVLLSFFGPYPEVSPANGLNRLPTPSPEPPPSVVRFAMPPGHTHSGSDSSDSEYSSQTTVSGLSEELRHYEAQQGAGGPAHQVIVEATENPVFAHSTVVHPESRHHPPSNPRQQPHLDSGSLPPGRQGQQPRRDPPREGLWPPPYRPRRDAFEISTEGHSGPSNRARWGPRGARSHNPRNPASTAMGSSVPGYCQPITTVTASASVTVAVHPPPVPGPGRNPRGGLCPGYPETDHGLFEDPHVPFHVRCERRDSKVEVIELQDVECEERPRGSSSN

Row | IC50 [µg/mL] | Substance
1 | 0.15 | soluble human Sonic hedgehog N-terminal fragment (unmodified, Cys-1 to Gly-174, produced in E. coli) (from UniProt Q14623 28-201) (ligand)
2 | 0.4 | tethered human Sonic hedgehog (N-terminal fragment with a palmitoyl group at the N-terminus and cholesterol at the C-terminus, purified from High Five insect cells) (from UniProt Q14623 28-201) (ligand)
